From patent US20120316071A1 (published 2012)

Assays:
[1] = molecular target: T1, Recombinant Human DLL4 (R&D Systems Cat#1506-D4/CF) (human, UniProt Q9NR61 27-524); assay: ECL multispot (MSD) assay, antigen spotted on plate; blank spot of this row 327
T1 construct: Bought recombinant protein; also called delta-like protein 4; rHuman DLL4

[2] = molecular target: T2, rHuman P-Cadherin/Fc Chimera, CF (R&D Systems Cat#861-PC) (human, UniProt P22223 108-654); assay: as above
T2 construct: Bought recombinant protein; Fc part of the bought chimera not given

[3] = molecular target: T3, rHuman Notch-1/Fc Chimera, CF (R&D Systems Cat#3647-TK) (human, UniProt P46531 19-526); assay: as above
T3 construct: Bought recombinant protein; Fc part of the bought chimera not given

[4] = molecular target: T4, rHuman HGF R/c-MET/Fc Chimera, CF (R&D Systems Cat#358-MT/CF) (human, UniProt P08581 25-932); assay: as above
T4 construct: Bought recombinant protein; also called HGF R/Fc; hepatocyte growth factor receptor; Fc part of the bought chimera not given
T4 sequence (P08581 25-932, change not shown): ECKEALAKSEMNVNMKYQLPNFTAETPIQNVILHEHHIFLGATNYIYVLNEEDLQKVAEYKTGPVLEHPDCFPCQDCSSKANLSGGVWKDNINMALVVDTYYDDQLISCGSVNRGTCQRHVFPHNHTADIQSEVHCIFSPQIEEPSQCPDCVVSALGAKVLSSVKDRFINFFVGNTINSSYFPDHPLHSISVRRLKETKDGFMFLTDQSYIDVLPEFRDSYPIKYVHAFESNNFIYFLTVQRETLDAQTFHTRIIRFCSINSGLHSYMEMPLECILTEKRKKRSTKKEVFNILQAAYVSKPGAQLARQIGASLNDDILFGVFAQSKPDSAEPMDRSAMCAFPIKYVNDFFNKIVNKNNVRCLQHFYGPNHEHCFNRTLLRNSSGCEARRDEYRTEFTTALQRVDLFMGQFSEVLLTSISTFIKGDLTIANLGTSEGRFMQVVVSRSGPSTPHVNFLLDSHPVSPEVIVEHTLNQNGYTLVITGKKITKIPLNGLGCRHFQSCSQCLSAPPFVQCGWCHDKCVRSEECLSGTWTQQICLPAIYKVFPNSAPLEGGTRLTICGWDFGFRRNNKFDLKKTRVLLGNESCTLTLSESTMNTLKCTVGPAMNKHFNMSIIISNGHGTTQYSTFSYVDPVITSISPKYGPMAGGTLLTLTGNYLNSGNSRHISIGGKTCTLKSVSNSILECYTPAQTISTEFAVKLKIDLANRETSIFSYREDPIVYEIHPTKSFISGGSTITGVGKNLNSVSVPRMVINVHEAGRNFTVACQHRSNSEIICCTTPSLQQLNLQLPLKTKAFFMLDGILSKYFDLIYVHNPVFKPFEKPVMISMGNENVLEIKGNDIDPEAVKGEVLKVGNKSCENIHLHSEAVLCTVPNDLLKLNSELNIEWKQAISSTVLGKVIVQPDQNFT

[5] = molecular target: T5, rHuman Erythropoietin R/Fc Chimera, CF (R&D Systems Cat#963-ER) (human, UniProt P19235 25-250); assay: as above
T5 construct: Bought recombinant protein; also called EPO R; EPO R/Fc; Fc part of the bought chimera not given
T5 sequence (looked up): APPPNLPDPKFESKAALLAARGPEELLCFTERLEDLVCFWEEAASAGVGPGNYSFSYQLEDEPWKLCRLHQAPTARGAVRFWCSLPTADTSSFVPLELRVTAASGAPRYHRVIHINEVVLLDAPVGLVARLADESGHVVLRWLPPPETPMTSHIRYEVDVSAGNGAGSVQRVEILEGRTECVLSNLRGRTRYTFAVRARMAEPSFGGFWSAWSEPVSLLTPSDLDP

[6] = molecular target: T6, rHuman CD44/Fc Chimera, CF (R&D Systems Cat#3660-CD) (human, UniProt P16070 21-220); assay: as above
T6 construct: Bought recombinant protein; Fc part of the bought chimera not given

[7] = molecular target: T7, rHuman IGF-1 sR, (IGF-1 sR), CF (R&D Systems Cat#391-GR) (human, UniProt P08069 31-932); assay: as above
T7 construct: Bought recombinant soluble receptor; also called insulin-like growth factor-1 soluble receptor

[8] = molecular target: T8, rHuman ErbB2/Fc Chimera, CF (R&D Systems Cat#1129-ER) (human, UniProt P04626 23-652); assay: as above
T8 construct: Bought recombinant protein; also called human epidermal growth factor 2 receptor; Fc part of the bought chimera not given

[9] = molecular target: T9, rHuman EGF R/Fc Chimera, CF (R&D Systems Cat#344-ER) (human, UniProt P00533 25-645); assay: as above
T9 construct: Bought recombinant protein; also called epidermal growth factor receptor; Fc part of the bought chimera not given

[10] = molecular target: T1, Recombinant Human DLL4 (R&D Systems …); assay: ECL multispot (MSD) assay, antigen spotted on plate; blank spot
[11] = molecular target: T2, rHuman P-Cadherin/Fc Chimera, CF (R&D …); assay: as above
[12] = molecular target: T3, rHuman Notch-1/Fc Chimera, CF (R&D …); assay: as above
[13] = molecular target: T4, rHuman HGF R/c-MET/Fc Chimera, CF (R&D …); assay: as above
[14] = molecular target: T5, rHuman Erythropoietin R/Fc Chimera, CF …; assay: as above
[15] = molecular target: T6, rHuman CD44/Fc Chimera, CF (R&D Systems …); assay: as above
[16] = molecular target: T7, rHuman IGF-1 sR, (IGF-1 sR), CF (R&D …); assay: as above
[17] = molecular target: T8, rHuman ErbB2/Fc Chimera, CF (R&D …); assay: as above
[18] = molecular target: T9, rHuman EGF R/Fc Chimera, CF (R&D …); assay: as above
[19] = molecular target: T1, Recombinant Human DLL4 (R&D Systems …); assay: ECL multispot (MSD) assay, antigen spotted on plate; blank spot of this row 278
[20] = molecular target: T2, rHuman P-Cadherin/Fc Chimera, CF (R&D …); assay: as above
[21] = molecular target: T3, rHuman Notch-1/Fc Chimera, CF (R&D …); assay: as above
[22] = molecular target: T4, rHuman HGF R/c-MET/Fc Chimera, CF (R&D …); assay: as above
[23] = molecular target: T5, rHuman Erythropoietin R/Fc Chimera, CF …; assay: as above
[24] = molecular target: T6, rHuman CD44/Fc Chimera, CF (R&D Systems …); assay: as above
[25] = molecular target: T7, rHuman IGF-1 sR, (IGF-1 sR), CF (R&D …); assay: as above
[26] = molecular target: T8, rHuman ErbB2/Fc Chimera, CF (R&D …); assay: as above
[27] = molecular target: T9, rHuman EGF R/Fc Chimera, CF (R&D …); assay: as above
[28] = molecular target: T1, Recombinant Human DLL4 (R&D Systems …); assay: ECL multispot (MSD) assay, antigen spotted on plate; blank spot of this row 392
[29] = molecular target: T2, rHuman P-Cadherin/Fc Chimera, CF (R&D …); assay: as above
[30] = molecular target: T3, rHuman Notch-1/Fc Chimera, CF (R&D …); assay: as above
[31] = molecular target: T4, rHuman HGF R/c-MET/Fc Chimera, CF (R&D …); assay: as above
[32] = molecular target: T5, rHuman Erythropoietin R/Fc Chimera, CF …; assay: as above
[33] = molecular target: T6, rHuman CD44/Fc Chimera, CF (R&D Systems …); assay: as above
[34] = molecular target: T7, rHuman IGF-1 sR, (IGF-1 sR), CF (R&D …); assay: as above
[35] = molecular target: T8, rHuman ErbB2/Fc Chimera, CF (R&D …); assay: as above
[36] = molecular target: T9, rHuman EGF R/Fc Chimera, CF (R&D …); assay: as above

B1: Fab VH1-46_IGHD6-6*01_IGHJ1*01 S102A/S103P/S104F/H111F (APFF) & L6_IGKJ1*01 S30Q (Fab, V domains shown)
VH: QVQLVQSGAEVKKPGASVKVSCKASGYTFTSYYMHWVRQAPGQGLEWMGIINPSGGSTSYAQKFQGRVTMTRDTSTSTVYMELSSLRSEDTAVYYCAREEYAPFSAEYFQFWGQGTLVTVSS
VL: EIVLTQSPATLSLSPGERATLSCRASQSVQSYLAWYQQKPGQAPRLLIYDASNRATGIPARFSGSGSGTDFTLTISSLEPEDFAVYYCQQRSNWPPWTFGQGTKVEIKR
notes: Fab made in E. coli: VH cloned into Plasmid A (CH1, His6 and Flag tags), kappa VL into Plasmid C (kappa CL); also called APFF / S30Q
ECL signal [1]: 197000
ECL signal [2]: 393
ECL signal [3]: 326
ECL signal [4]: 344
ECL signal [5]: 376
ECL signal [6]: 411
ECL signal [7]: 354
ECL signal [8]: 340
ECL signal [9]: 381

B2: Fab VH1-46_IGHD6-6*01_IGHJ1*01 S102A/S103P/S104F/H111F (APFF) & L6_IGKJ1*01 S30V (Fab, V domains shown)
VH: QVQLVQSGAEVKKPGASVKVSCKASGYTFTSYYMHWVRQAPGQGLEWMGIINPSGGSTSYAQKFQGRVTMTRDTSTSTVYMELSSLRSEDTAVYYCAREEYAPFSAEYFQFWGQGTLVTVSS
VL: EIVLTQSPATLSLSPGERATLSCRASQSVVSYLAWYQQKPGQAPRLLIYDASNRATGIPARFSGSGSGTDFTLTISSLEPEDFAVYYCQQRSNWPPWTFGQGTKVEIKR
notes: Fab made in E. coli: VH cloned into Plasmid A (CH1, His6 and Flag tags), kappa VL into Plasmid C (kappa CL); also called APFF / S30V
ECL signal [10]: 141000
ECL signal [11]: 333
ECL signal [12]: 294
ECL signal [13]: 394
ECL signal [14]: 536
ECL signal [15]: 375
ECL signal [16]: 365
ECL signal [17]: 279
ECL signal [18]: 412

B3: Fab VH1-46_IGHD6-6*01_IGHJ1*01 S102A/S103P/S104F/H111F (APFF) & L6_IGKJ1*01 S30R (Fab, V domains shown)
VH: QVQLVQSGAEVKKPGASVKVSCKASGYTFTSYYMHWVRQAPGQGLEWMGIINPSGGSTSYAQKFQGRVTMTRDTSTSTVYMELSSLRSEDTAVYYCAREEYAPFSAEYFQFWGQGTLVTVSS
VL: EIVLTQSPATLSLSPGERATLSCRASQSVRSYLAWYQQKPGQAPRLLIYDASNRATGIPARFSGSGSGTDFTLTISSLEPEDFAVYYCQQRSNWPPWTFGQGTKVEIKR
notes: Fab made in E. coli: VH cloned into Plasmid A (CH1, His6 and Flag tags), kappa VL into Plasmid C (kappa CL); also called APFF / S30R
ECL signal [19]: 189000
ECL signal [20]: 442
ECL signal [21]: 313
ECL signal [22]: 452
ECL signal [23]: 525
ECL signal [24]: 472
ECL signal [25]: 422
ECL signal [26]: 404
ECL signal [27]: 395

B4: Fab VH1-46_IGHD6-6*01_IGHJ1*01 S102A/S103P/S104F/H111F (APFF) & L6_IGKJ1*01 S30T (Fab, V domains shown)
VH: QVQLVQSGAEVKKPGASVKVSCKASGYTFTSYYMHWVRQAPGQGLEWMGIINPSGGSTSYAQKFQGRVTMTRDTSTSTVYMELSSLRSEDTAVYYCAREEYAPFSAEYFQFWGQGTLVTVSS
VL: EIVLTQSPATLSLSPGERATLSCRASQSVTSYLAWYQQKPGQAPRLLIYDASNRATGIPARFSGSGSGTDFTLTISSLEPEDFAVYYCQQRSNWPPWTFGQGTKVEIKR
notes: Fab made in E. coli: VH cloned into Plasmid A (CH1, His6 and Flag tags), kappa VL into Plasmid C (kappa CL); also called APFF / S30T
ECL signal [28]: 136000
ECL signal [29]: 418
ECL signal [30]: 375
ECL signal [31]: 320
ECL signal [32]: 470
ECL signal [33]: 521
ECL signal [34]: 401
ECL signal [35]: 269
ECL signal [36]: 383
